Experimental findings from article PMC7544213, “Weak binding to the A2RE RNA rigidifies hnRNPA2 RRMs and reduces liquid–liquid phase separation and aggregation” are described below.

Conditions in all cases: protein: recombinant; tags: His tag removed by TEV; single strand
Series [1] has as its target T1, hnRNPA2 1-189 (tandem RRMs) (UniProt P22626-2 1-189). In words: ITC; 20 mM NaPi pH 6.75, 150 mM NaCl; N about 1; ITC: 20 mM NaPi pH 6.75, 150 mM NaCl, 25 C (also 20 mM KPi pH 6.75; 20 mM MES pH 6.7, 150 mM NaCl, 10 mM CaCl2); protein in syringe, RNA in cell.
In series [2] the target is T1, hnRNPA2 1-189 (tandem RRMs). In words: ITC; 7000 uM protein, 800 uM RNA; N 0.798; ITC: 20 mM NaPi pH 6.75, 150 mM NaCl, 25 C (also 20 mM KPi pH 6.75; 20 mM MES pH 6.7, 150 mM NaCl, 10 mM CaCl2); protein in syringe, RNA in cell.
For series [3] the target is unchanged. Kind of series: ITC; 4600 uM protein, 115 uM RNA; N 0.785; ITC: 20 mM NaPi pH 6.75, 150 mM NaCl, 25 C (also 20 mM KPi pH 6.75; 20 mM MES pH 6.7, 150 mM NaCl, 10 mM CaCl2); protein in syringe, RNA in cell.
For series [4] the target is unchanged. In words: ITC; 7000 uM protein, 800 uM RNA; N 0.921; ITC: 20 mM NaPi pH 6.75, 150 mM NaCl, 25 C (also 20 mM KPi pH 6.75; 20 mM MES pH 6.7, 150 mM NaCl, 10 mM CaCl2); protein in syringe, RNA in cell.
For series [5] the target is unchanged. In words: ITC; 20 mM KPi pH 6.75, no NaCl; N about 1; ITC: 20 mM NaPi pH 6.75, 150 mM NaCl, 25 C (also 20 mM KPi pH 6.75; 20 mM MES pH 6.7, 150 mM NaCl, 10 mM CaCl2); protein in syringe, RNA in cell.
For series [6] the target is unchanged. In words: ITC; ITC: 20 mM NaPi pH 6.75, 150 mM NaCl, 25 C (also 20 mM KPi pH 6.75; 20 mM MES pH 6.7, 150 mM NaCl, 10 mM CaCl2); protein in syringe, RNA in cell.

T1 sequence (P22626 other isoform, or with tags, fused parts or gaps): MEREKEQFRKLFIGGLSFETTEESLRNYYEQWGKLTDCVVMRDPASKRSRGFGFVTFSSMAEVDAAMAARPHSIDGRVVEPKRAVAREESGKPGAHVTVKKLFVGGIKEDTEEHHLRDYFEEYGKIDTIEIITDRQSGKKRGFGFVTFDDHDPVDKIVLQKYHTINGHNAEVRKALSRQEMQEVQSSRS

B1: rA2RE11 (ssRNA)
RNA: GCCAAGGAGCC
Take B1: the Kd was approximately 52 µM in series [1]; 143 ± 10 µM in series [2]; 19.8 ± 0.4 µM in series [3]; 139 ± 10 µM in series [4]; approximately 35 µM in series [5].

B2: Wu_10mer (ssRNA)
RNA: AAGGACUAGC
In the case of B2, in series [6], the Kd worked out at 0.228 ± 0.002 µM.
